The target in test [1] is recombinant human TLR-2 (Met1 to Leu590) (human, UniProt O60603 21-590, labeled with fluorophore NT-647). The test is described as follows: MST.
The target of test [2] is recombinant human TLR-4 (Glu24 to Lys631) (human, UniProt O00206 24-631, labeled with fluorophore NT-647). Put plainly: MST.
recombinant human TLR-4 (Glu24 to Lys631), sequence (O00206 24-631): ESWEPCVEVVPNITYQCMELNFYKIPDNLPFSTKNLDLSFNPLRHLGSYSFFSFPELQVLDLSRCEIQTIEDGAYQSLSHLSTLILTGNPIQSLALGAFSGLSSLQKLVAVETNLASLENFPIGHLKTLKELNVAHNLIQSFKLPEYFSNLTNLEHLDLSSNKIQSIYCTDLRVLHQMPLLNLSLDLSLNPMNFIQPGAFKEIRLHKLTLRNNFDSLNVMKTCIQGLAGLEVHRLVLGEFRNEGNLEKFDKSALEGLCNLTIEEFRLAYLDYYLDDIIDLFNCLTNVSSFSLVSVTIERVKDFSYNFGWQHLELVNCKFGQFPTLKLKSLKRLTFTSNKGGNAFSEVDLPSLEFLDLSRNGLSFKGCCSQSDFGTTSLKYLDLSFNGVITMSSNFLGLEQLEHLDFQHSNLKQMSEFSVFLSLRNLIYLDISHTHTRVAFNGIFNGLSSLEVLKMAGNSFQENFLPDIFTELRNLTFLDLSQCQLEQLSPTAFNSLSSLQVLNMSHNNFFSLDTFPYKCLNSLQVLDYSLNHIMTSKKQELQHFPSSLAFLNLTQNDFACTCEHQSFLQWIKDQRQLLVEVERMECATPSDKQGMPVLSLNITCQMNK

recombinant human TLR-2 (Met1 to Leu590), sequence (O60603 21-590): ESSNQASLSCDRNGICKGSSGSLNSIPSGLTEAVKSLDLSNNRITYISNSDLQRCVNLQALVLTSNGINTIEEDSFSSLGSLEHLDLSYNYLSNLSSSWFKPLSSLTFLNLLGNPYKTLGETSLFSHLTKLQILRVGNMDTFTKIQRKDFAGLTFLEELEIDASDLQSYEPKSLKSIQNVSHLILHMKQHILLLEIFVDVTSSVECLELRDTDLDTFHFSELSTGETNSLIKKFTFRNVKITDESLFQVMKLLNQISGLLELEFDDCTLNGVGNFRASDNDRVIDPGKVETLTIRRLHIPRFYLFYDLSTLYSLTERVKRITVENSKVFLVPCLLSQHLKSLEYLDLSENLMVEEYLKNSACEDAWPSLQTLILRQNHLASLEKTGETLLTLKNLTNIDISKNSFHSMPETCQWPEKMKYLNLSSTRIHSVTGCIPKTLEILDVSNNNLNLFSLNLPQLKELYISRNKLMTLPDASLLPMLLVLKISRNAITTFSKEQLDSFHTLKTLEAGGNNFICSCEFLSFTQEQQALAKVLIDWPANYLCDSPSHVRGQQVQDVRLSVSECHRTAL

B1: human biglycan (soluble biglycan proteoglycan) (natural protein, UniProt P21810 38-368, looked up)
chain: DEEASGADTSGVLDPDSVTPTYSAMCPFGCHCHLRVVQCSDLGLKSVPKEISPDTTLLDLQNNDISELRKDDFKGLQHLYALVLVNNKISKIHEKAFSPLRKLQKLYISKNHLVEIPPNLPSSLVELRIHDNRIRKVPKGVFSGLRNMNCIEMGGNPLENSGFEPGAFDGLKLNYLRISEAKLTGIPKDLPETLNELHLDHNKIQAIELEDLLRYSKLYRLGLGHNQIRMIENGSLSFLPTLRELHLDNNKLARVPSGLPDLKLLQVVYLHSNNITKVGVNDFCPMGFGVKRAYYNGISLFNNPVPYWEVQPATFRCVTDRLAIQFGNYKK
modifications: two chondroitin/dermatan sulfate chains
The term Kd denotes the equilibrium constant for the complex coming apart. On to B1, for which the Kd came to 31 nM in test [1] and 28 nM in test [2].

Source of the values: article PMC4057019 (Matrix biology : journal of the International Society for …, 2014).
